Data as given in PMC2785583 (The Journal of Biological Chemistry, 2009).

How the values were obtained:
[1] = target: Protein FAF (F. magna adhesion factor), recombinant, amino acids 28-616 (Finegoldia magna); test: SPR
SDS-PAGE = target: the molecule itself; test: SDS-PAGE

Kd [1]: 4.9 nM
B1: Recombinant human MIG/CXCL9 (monokine induced by gamma-interferon) (ligand, UniProt Q07325 23-125, looked up)
chain: TPVVRKGRCSCISTNQGTIHLQSLKDLKQFAPSPSCEKIEIIATLKNGVQTCLNPDSADVKELIKKWEKQVSQKKKQKNGKKHQKKKVLKVRKSQRSRQKKTT
binding result (SDS-PAGE): binds
